# Assay results published in US20160272690A1.
# Bridges are numbered along the chain shown (N, C = ends). Where no end group is shown, it is not given here. [ ]: non-standard residue; d: D form. hCys = N[C@@H](CCS)C(=O)O; Orn = NCCC[C@H](N)C(=O)O; Dab = NCC[C@H](N)C(=O)O
# Molecular target: TEAD
# Test: IC50 for TEAD binding (TR-FRET test)
# Chain of TEAD (P28347 209-426): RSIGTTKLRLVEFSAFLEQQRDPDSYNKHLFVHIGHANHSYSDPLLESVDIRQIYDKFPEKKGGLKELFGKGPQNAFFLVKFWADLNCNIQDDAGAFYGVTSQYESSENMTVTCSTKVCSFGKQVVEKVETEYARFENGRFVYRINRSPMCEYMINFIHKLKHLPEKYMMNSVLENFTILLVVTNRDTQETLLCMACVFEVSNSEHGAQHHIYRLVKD
row,IC50,Binder
1,43 nM,VPF[hCys]LR[Orn]LPDSFCKPPE (disulfide 4-13) [polypeptide represented by SEQ ID NO.: 5]
2,28 nM,VPF[hCys]LR[Dab]LPDSFCKPPE (disulfide 4-13) [polypeptide represented by SEQ ID NO.: 6]
